Measured values from the supplement of paper PMC10201428.
± gives the standard deviation of the averaged measurements.

B1: library; a variant is named by its letters at N, in order (parent)
chain: AATGTTGTTGATGCAACCATAAAGTGATATTTAATAATTATTTATAATCAGCAACTTAACCACAAAACAACCATATATTGATATNTCACAAAACAACCATAANTTGATATTTTTGTGAATCGAGTATTTCAGCAAAACTACTGCAGTAAGAA

What was measured:
[1] = variants of: B1; test: relative integration efficiency (T-LR orientation) vs wild-type transposon end (log2 (normalized fold change)); transposon end mutated: left end; higher = more efficient transposition; conditions: with VchCAST RNA-guided transposition machinery (E. coli BL21(DE3) host, lacZ target)
Summary of the method: (§1)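 Barcoded pools of 1549 left-end or 1849 right-end transposon variants were cloned into a pUC57 mini-transposon donor. Each pool was co-transformed with a T7-driven effector plasmid (CRISPR array, tniQ-cas8-cas7-cas6, tnsA-tnsB-tnsC) into E. coli BL21(DE3) and plated with 0.1 mM IPTG at 37°C for 18 h. Input plasmids and genomic integration junctions were PCR-amplified and Illumina-sequenced, with two biological output replicates and four wild-type barcodes as reference. Relative integration efficiency is output/input barcode abundance fold change, normalised to wild-type barcodes and log-transformed.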

[2] = variants of: B1; test: relative integration efficiency (T-RL orientation) vs wild-type transposon end (log2 (normalized fold change)); transposon end mutated: left end; higher = more efficient transposition; conditions: with VchCAST RNA-guided transposition machinery (E. coli BL21(DE3) host, lacZ target)
Summary of the method: as §1

Row | Variant | relative integration efficiency (log2) [1] | relative integration efficiency (log2) [2]
1 | CG G10C | -1.66 ± 0.034 | -0.357 ± 0.19
2 | CG G10C A11T | < -10 | 0.833 ± 0.19
3 | CG G10T | -1.38 ± 0.3 | -0.454 ± 0.26
4 | CG G10T A11C | -2.92 ± 0.037 | -1.58 ± 0.41
5 | CG G10T A11C T12G G13T | -4.3 ± 0.89 | -1.43 ± 0.49
6 | CG G13A | 0.397 ± 0.29 | 0.195 ± 0.069
7 | CG G13A T30A T31C T32A A77C T86G | -0.338 ± 0.55 | -0.517 ± 0.16
8 | CG G13C | -0.392 ± 0.57 | 0.0316 ± 0.11
9 | CG G13C C14G | -0.831 ± 0.62 | -0.232 ± 0.36
10 | CG G13C C14G A15T A16T | -1.69 ± 1.2 | -1.03 ± 0.47
11 | CG G13T | -0.887 ± 0.83 | 0.0664 ± 0.041
12 | CG G13T C14A | -1.46 ± 1.2 | -0.416 ± 0.31
13 | CG G13T C14A A15C A16C | -1.69 ± 1.1 | -0.389 ± 0.12
14 | CG G24A | 0.726 ± 0.12 | 0.3 ± 0.075
15 | CG G24A T30A | 0.342 ± 0.15 | 0.261 ± 0.027
16 | TG G24A T30A A70C T76A T84A C87A | 0.298 ± 0.13 | -0.172 ± 0.16
17 | TG G24A T30A A70C T76A T86G | 1.23 ± 0.52 | 0.692 ± 0.36
18 | TG G24A T30A T76A A77G C87T | 0.724 ± 0.54 | 0.0845 ± 0.24
19 | TG G24A T30A T76A T78A T84A C87A | 0.236 ± 0.09 | 0.0157 ± 0.17
20 | TG G24A T30A T76A T78G C87A | 0.0926 ± 0.5 | 0.0283 ± 0.13
21 | CG G24C | -0.15 ± 0.17 | -0.164 ± 0.021
22 | CG G24C T25A | -0.543 ± 0.54 | -0.605 ± 0.37
23 | CG G24C T25A G26C A27T | -2.36 ± 0.61 | -2.38 ± 0.98
24 | CG G24C T78A T104A | -0.403 ± 0.24 | -0.396 ± 0.19

Row | Variant | relative integration efficiency (log2) [1] | relative integration efficiency (log2) [2]
25 | CG G24T | 0.871 ± 0.023 | 0.72 ± 0.19
26 | CG G24T T25G | -0.649 ± 0.2 | -0.561 ± 0.34
27 | CG G24T T25G G26T A27C | -2.96 ± 1.7 | -2.31 ± 0.84
28 | CG G24T T78G T104G | 0.121 ± 0.35 | -0.352 ± 0.37
29 | CG G26A | -0.184 ± 0.65 | -0.427 ± 0.47
30 | CG G26C | -1.96 ± 1.7 | -1.36 ± 0.65
31 | CG G26C A27T | -3.33 ± 1.1 | -2.12 ± 0.85
32 | CG G26C A27T T28A A29T | -1.67 ± 0.28 | -1.58 ± 0.67
33 | CG G26C G80C G106C | -5.11 ± 2.5 | -6.9 ± 1.7
34 | CG G26T | -0.577 ± 1.1 | -0.329 ± 0.41
35 | CG G26T A27C | -0.945 ± 0.26 | -1.68 ± 0.7
36 | CG G26T A27C T28G A29C | -1.37 ± 0.4 | -1.9 ± 1.2
37 | CG G26T G80T G106T | -1.86 ± 1.8 | -2.79 ± 1.3
38 | CG G51A | 0.634 ± 0.19 | 0.302 ± 0.085
39 | CG G51C | -0.456 ± 0.66 | -0.42 ± 0.19
40 | CG G51C C52G | -0.162 ± 0.74 | -0.107 ± 0.11
41 | CG G51C C52G A53T A54T | -0.796 ± 0.93 | -0.34 ± 0.37
42 | CG G51T | 0.637 ± 0.29 | 0.00628 ± 0.18
43 | CG G51T C52A | 0.348 ± 0.34 | 0.159 ± 0.19
44 | CG G51T C52A A53C A54C | -0.964 ± 0.62 | -0.488 ± 0.45
45 | CG G80A | -0.967 ± 1.4 | -0.773 ± 0.37
46 | CG G80C | -1.47 ± 0.43 | -2.06 ± 0.66
47 | CG G80C A81T | -2.2 ± 1.5 | -2.1 ± 0.85
48 | CG G80C A81T T82A A83T | -2 ± 1.1 | -1.88 ± 0.77

Row | Variant | relative integration efficiency (log2) [1] | relative integration efficiency (log2) [2]
49 | CG G80T | 0.0932 ± 0.91 | -0.44 ± 0.42
50 | CG G80T A81C | -1.7 ± 0.97 | -1.51 ± 0.7
51 | CG G80T A81C T82G A83C | -2.93 ± 1.9 | -2.64 ± 0.94
52 | CG G106A | -1.25 ± 1.6 | -0.788 ± 0.47
53 | CG G106C | -2.1 ± 1.4 | -1.81 ± 0.62
54 | CG G106C A107T | -1.92 ± 1.4 | -1.78 ± 0.63
55 | CG G106C A107T T108A A109T | -1.44 ± 0.63 | -1.36 ± 0.7
56 | CG G106T | -1.19 ± 0.64 | -0.797 ± 0.42
57 | CG G106T A107C | -1.19 ± 0.39 | -1.42 ± 0.84
58 | CG G106T A107C T108G A109C | -2.4 ± 0.46 | -2.01 ± 0.81
59 | CG G115A | 0.113 ± 0.17 | -0.259 ± 0.26
60 | CG G115C | 0.709 ± 0.14 | 0.417 ± 0.026
61 | CG G115C T116A | 0.199 ± 0.12 | -0.00924 ± 0.092
62 | CG G115C T116A G117C A118T | 0.334 ± 0.11 | -0.12 ± 0.028
63 | CG G115T | 0.42 ± 0.24 | 0.238 ± 0.1
64 | CG G115T T116G | 0.0607 ± 0.61 | 0.243 ± 0.033
65 | CG G115T T116G G117T A118C | -0.131 ± 0.19 | -0.00966 ± 0.025
66 | CG G115T T116G G117T A118C A119C T120G C121A G122T A123C G124T T125G | 0.199 ± 0.37 | 0.000247 ± 0.072
67 | CG G117A | -0.315 ± 0.5 | -0.123 ± 0.016
68 | CG G117C | -0.761 ± 0.33 | -0.41 ± 0.12
69 | CG G117C A118T | 0.236 ± 0.11 | 0.235 ± 0.026
70 | CG G117C A118T A119T T120A | 0.101 ± 0.3 | 0.268 ± 0.02
71 | CG G117T | -0.0744 ± 0.017 | -0.0764 ± 0.036
72 | CG G117T A118C | 0.251 ± 0.35 | 0.0866 ± 0.029

Row | Variant | relative integration efficiency (log2) [1] | relative integration efficiency (log2) [2]
73 | CG G117T A118C A119C T120G | 0.0571 ± 0.28 | 0.0586 ± 0.085
74 | CG G117T A118C A119C T120G C121A G122T A123C G124T T125G | 0.16 ± 0.029 | 0.0955 ± 0.074
75 | CG G122T A123C G124T T125G | 0.252 ± 0.21 | 0.127 ± 0.054
76 | CG G124T T125G | -0.377 ± 0.42 | -0.329 ± 0.048
77 | CG T3A | -0.175 ± 0.58 | -0.148 ± 0.071
78 | CG T3A G4C | -0.231 ± 0.33 | 0.0698 ± 0.073
79 | CG T3C | 0.718 ± 0.1 | 0.297 ± 0.0045
80 | CG T3G | 0.394 ± 0.5 | 0.0915 ± 0.044
81 | CG T3G G4T | 0.453 ± 0.4 | 0.121 ± 0.041
82 | CG T3G G4T T5G T6G | < -10 | -7.767 ± 0.04
83 | CG T5A | -0.149 ± 0.06 | -0.22 ± 0.057
84 | CG T5A T6A | < -10 | -6.46 ± 0.12
85 | CG T5C | -0.291 ± 0.23 | -0.319 ± 0.008
86 | CG T5G | 0.0272 ± 0.098 | 0.0254 ± 0.14
87 | CG T5G T6G | < -10 | –
88 | CG T5G T6G G7T T8G | < -10 | -6.89 ± 0.7
89 | CG T6A | < -10 | -6.68 ± 0.076
90 | CG T6C | -1.5 ± 1 | -2.65 ± 0.37
91 | CG T6G G7T T8G T9G | < -10 | -7.37 ± 0.95
92 | CG T8A | -0.491 ± 0.035 | -0.209 ± 0.19
93 | CG T8A T9A | -0.985 ± 0.14 | -0.297 ± 0.11
94 | CG T8A T9A G10C A11T | < -10 | -6.573 ± 0.021
95 | CG T8C | -0.996 ± 0.69 | -1.39 ± 0.56
96 | CG T8G | < -10 | -6.68 ± 0.98

Row | Variant | relative integration efficiency (log2) [1] | relative integration efficiency (log2) [2]
97 | CG T9A | -0.191 ± 0.61 | -0.00405 ± 0.092
98 | CG T9A G10C | -2.248 ± 0.0027 | -0.479 ± 0.16
99 | CG T9A G10C A11T T12A | -4.24 ± 1.9 | -1.59 ± 0.56
100 | CG T9C | 0.146 ± 0.38 | 0.242 ± 0.0041
101 | CG T9G | 0.416 ± 0.19 | 0.28 ± 0.09
102 | CG T9G G10T | -0.0361 ± 0.31 | 0.0751 ± 0.11
103 | CG T9G G10T A11C T12G | -1.29 ± 0.52 | -0.645 ± 0.35
104 | CG T12A | 0.00533 ± 0.2 | -0.099 ± 0.056
105 | CG T12A G13A | -0.256 ± 0.34 | -0.294 ± 0.04
106 | CG T12A G13A A77C T86G | -0.125 ± 0.28 | -0.319 ± 0.14
107 | CG T12A G13A T30A A77C T86G | -0.394 ± 0.45 | -0.113 ± 0.12
108 | CG T12A G13A T30A T31C A77C T86G | -1.07 ± 0.047 | -0.538 ± 0.15
109 | CG T12A G13A T30A T31C T32A | -1.04 ± 0.35 | -0.578 ± 0.26
110 | CG T12A G13A T30A T31C T32A A77C | -1.73 ± 0.73 | -0.517 ± 0.24
111 | CG T12A G13A T30A T31C T32A A77C T86G | -0.4 ± 0.61 | -0.303 ± 0.3
112 | CG T12A G13A T30A T31C T32A T86G | -0.319 ± 0.034 | -0.119 ± 0.27
113 | CG T12A G13A T30A T32A A77C T86G | -0.499 ± 0.21 | -0.36 ± 0.22
114 | CG T12A G13A T31C A77C T86G | -0.319 ± 0.56 | -0.196 ± 0.058
115 | CG T12A G13A T31C T32A A77C T86G | -0.861 ± 0.36 | -0.573 ± 0.15
116 | CG T12A G13A T32A A77C T86G | 0.117 ± 0.45 | -0.0481 ± 0.05
